We go through 20 molecules from patent publication US20230414780A1 (VECT HORUS, published 2023).

Common to all, as to test: apparent Kd, flow cytometry, CHO cells
Assay [1] addresses T1, human transferrin receptor (hTfR) fused to EGFP, on CHO cells (human, UniProt P02786 1-760).
T1 construct: whole, on cells; also called human TfR; CHO-hTfR-EGFP; not shown: EGFP from pEGFP-C1 vector, fused to the N-terminal (intracellular) end of hTfR
On the procedure:
(§1) The binding properties of VHHs with affinity for the TfR from different species (i.e., human (h), mouse (m) and rhesus monkey (rh)) were tested using flow cytometry, and apparent affinities (Kd app) were determined. All experiments were performed in 96 well plates using 2×10⁵ cells/well, at 4° C. with shaking. CHO cell lines expressing the hTfR, mTfR or rhTfR fused to EGFP were saturated with PBS/BSA 2% solution during 30 min to avoid nonspecific binding, followed by incubation with purified VHHs at increasing concentrations for 1 hr. After one wash in PBS/BSA 2%, cells were incubated for 1 hr with an anti-6His tag antibody (mouse), washed twice with PBS/BSA 2%, and incubated for 1 hr with an Alexa647-conjugated anti-mouse secondary antibody. After two last washes in PBS/BSA 2%, cells were fixed by incubation for 15 min with PBS/PFA 2%, washed once with PBS and finally resuspended in PBS. Fluorescence levels were assessed using an Attune NxT flow cytometer (Thermo Fisher Scientific). Experimental data were fitted with GraphPad Prism® software using a nonlinear fit to determine the apparent Kd constants. […] Table 5 hereafter summarizes apparent Kd obtained for the tested VHHs.

Assay [2] deals with T2, mouse transferrin receptor (mTfR) fused to EGFP, on CHO cells (mouse, UniProt Q62351 1-763).
T2 construct: whole, on cells; also called mouse TfR; CHO-mTfR-EGFP; not shown: EGFP
T2 sequence (Q62351 whole entry, the tested form may be a part): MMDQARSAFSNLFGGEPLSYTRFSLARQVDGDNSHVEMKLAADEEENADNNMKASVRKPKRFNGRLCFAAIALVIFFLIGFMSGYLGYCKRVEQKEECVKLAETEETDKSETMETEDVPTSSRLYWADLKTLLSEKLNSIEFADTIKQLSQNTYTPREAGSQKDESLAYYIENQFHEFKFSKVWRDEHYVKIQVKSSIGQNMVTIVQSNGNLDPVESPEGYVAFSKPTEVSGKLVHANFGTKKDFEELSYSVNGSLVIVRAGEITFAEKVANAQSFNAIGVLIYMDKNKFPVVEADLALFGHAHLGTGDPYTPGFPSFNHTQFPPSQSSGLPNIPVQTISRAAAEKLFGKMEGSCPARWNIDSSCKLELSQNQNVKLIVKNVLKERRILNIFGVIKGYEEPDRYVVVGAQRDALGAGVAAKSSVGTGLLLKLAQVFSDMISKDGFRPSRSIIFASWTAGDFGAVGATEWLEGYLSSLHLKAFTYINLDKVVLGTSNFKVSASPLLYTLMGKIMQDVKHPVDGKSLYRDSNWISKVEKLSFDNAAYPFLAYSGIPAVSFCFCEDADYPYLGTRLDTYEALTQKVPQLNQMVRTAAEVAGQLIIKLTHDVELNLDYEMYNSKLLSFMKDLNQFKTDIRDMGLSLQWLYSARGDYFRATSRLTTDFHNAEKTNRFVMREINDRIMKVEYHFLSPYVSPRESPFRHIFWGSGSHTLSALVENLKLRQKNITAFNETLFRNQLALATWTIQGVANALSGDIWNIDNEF
On the procedure: as §1

Assay [3] addresses T3, rhesus monkey transferrin receptor (rhTfR) fused to EGFP, on CHO cells (rhesus monkey).
T3 construct: whole, on cells; also called rhesus monkey TfR
As for the experimental part: as §1

T1 sequence (P02786 whole entry, the tested form may be a part): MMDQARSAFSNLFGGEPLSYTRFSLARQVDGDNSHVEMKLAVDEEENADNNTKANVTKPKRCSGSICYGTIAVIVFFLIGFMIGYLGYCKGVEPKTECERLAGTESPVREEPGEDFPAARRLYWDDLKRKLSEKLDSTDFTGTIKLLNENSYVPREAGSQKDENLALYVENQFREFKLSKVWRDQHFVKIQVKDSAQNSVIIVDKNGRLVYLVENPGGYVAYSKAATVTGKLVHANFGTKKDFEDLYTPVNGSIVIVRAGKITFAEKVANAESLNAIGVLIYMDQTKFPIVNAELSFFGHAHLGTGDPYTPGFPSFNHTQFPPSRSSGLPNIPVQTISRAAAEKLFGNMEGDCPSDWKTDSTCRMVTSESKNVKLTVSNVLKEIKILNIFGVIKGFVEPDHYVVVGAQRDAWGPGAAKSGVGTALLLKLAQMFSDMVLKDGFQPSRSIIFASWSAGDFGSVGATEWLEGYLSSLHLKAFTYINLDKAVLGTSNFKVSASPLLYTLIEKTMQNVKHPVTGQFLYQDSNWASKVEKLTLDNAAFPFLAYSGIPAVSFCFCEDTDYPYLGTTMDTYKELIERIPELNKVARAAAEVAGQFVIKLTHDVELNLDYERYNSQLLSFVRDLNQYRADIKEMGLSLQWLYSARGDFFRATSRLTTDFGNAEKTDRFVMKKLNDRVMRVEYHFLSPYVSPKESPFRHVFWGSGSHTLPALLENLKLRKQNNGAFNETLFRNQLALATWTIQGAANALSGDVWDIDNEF

B1: A9a (VHH)
VHH: QVQLVQSGGGLVQAGGSLRLSCAASGSIFLINDMGWYRQAPGKQRELVAVRGGSTKYGDSVKGRFTISRDDAKNTVYLQMNSLKPEDTAVYYCHRESGLGSSEYWGQGTQVTVSS
For the molecule B1, the Kd was found to be 1860 nM in assay [1], 841 nM in assay [2] and 965 nM in assay [3].

B2: B8^V2 (VHH)
VHH: EVQLVESGGGVVQPGGSLRLSCAASGEIFSINFMRWYGQAPGKQREWVAGFTRDGSTNYPDSAKGRFTISRDNAKNTVYLQIDSLKPEDTAVYYCYMLDTWGQGTQVTVSS
As for B2, the Kd in assay [1] is 0.1 nM; in assay [2], 0.2 nM; in assay [3], 0.1 nM.

B3: B8^V25 (VHH)
VHH: EVQLVESGGGVVQPGGSLRLSCAASGEIFSINFMRWYRQAPGKQREWVAAFTRDGSTNYPDSAKGRFTISRDNAKNTVYLQIDSLKPEDTAVYYCYMLDTWGQGTQVTVSS
B3: the values for the Kd in assay [1], in assay [2] and in assay [3] were 14 nM, 2350 nM and 425 nM, respectively.

B4: B8^V20 (VHH)
VHH: EVQLVESGGGVVQPGGSLRLSCAASGEIFSINFMRWYRQAPGKQREWVAGFTRDGSHNYPDSAKGRFTISRDNAKNTVYLQIDSLKPEDTAVYYCYMLDTWGQGTQVTVSS
For the molecule B4, the Kd in assay [1] came to 4.5 nM; in assay [2] it was 6.4 nM; in assay [3], 1.8 nM.

B5: B8^V4 (VHH)
VHH: EVQLVESGGGVVQPGGSLRLSCAASGEIFSINFMRWYRQAPIKQREWVAGFTRDGSTNYPDSAKGRFTISRDNAKNTVYLQIDSLKPEDTAVYYCYMLDTWGQGTQVTVSS
In the case of B5, the Kd in assay [1] stood at 0.4 nM; in assay [2] it was 0.6 nM; in assay [3], 0.3 nM.

B6: B8^V7 (VHH)
VHH: EVQLVESGGGVVQPGGSLRLSCAASGEIFSINFMRWYRQAPGKQREWVAGFTRDGYTNYPDSAKGRFTISRDNAKNTVYLQIDSLKPEDTAVYYCYMLDTWGQGTQVTVSS
Regarding B6, the Kd amounted to 5.7 nM in assay [1], 41 nM in assay [2] and 2.6 nM in assay [3].

B7: B8^V15 (VHH)
VHH: EVQLVESGGGVVQPGGSLRLSCAASGEIFSINFMRWYRQAPGKQREWVAGFTRDDSTNYPDSAKGRFTISRDNAKNTVYLQIDSLKPEDTAVYYCYMLDTWGQGTQVTVSS
As for B7, the Kd worked out at 4.7 nM in assay [1], 684 nM in assay [2] and 4.3 nM in assay [3].

B8: B8^V30 (VHH)
VHH: EVQLVESGGGVVQPGGSLRLSCAASGEIFSINFMRWYRQAPGKQREWVAGFTRDGSTNYPDSAKGRFTISRDNAKNTVYLQIDSLKPEDTAVYYCYMQDTWGQGTQVTVSS
Consider B8, for which the Kd in assay [1] stood at 24 nM; in assay [2] it was 3320 nM; in assay [3] it was 505 nM.

B9: B8^V14 (VHH)
VHH: EVQLVESGGGVVQPGGSLRLSCAASGEIFSINFMRWYRQAPGKQREWVAGFTRLGSTNYPDSAKGRFTISRDNAKNTVYLQIDSLKPEDTAVYYCYMLDTWGQGTQVTVSS
Consider B9, for which the Kd in assay [1] stood at 4.8 nM; in assay [2] it was 41 nM; in assay [3] it was 1.9 nM.

B10: B8^V18 (VHH)
VHH: EVQLVESGGGVVQPGGSLRLSCAASGEIHSINFMRWYRQAPGKQREWVAGFTRDGSTNYPDSAKGRFTISRDNAKNTVYLQIDSLKPEDTAVYYCYMLDTWGQGTQVTVSS
Consider B10, for which the results for the Kd in assay [1], in assay [2] and in assay [3] were 3.8 nM, 43 nM and 1.6 nM, respectively.

B11: B8^V21 (VHH)
VHH: EVQLVESGGGVVQPGGSLRLSCAASGEIFSINNMRWYRQAPGKQREWVAGFTRDGSTNYPDSAKGRFTISRDNAKNTVYLQIDSLKPEDTAVYYCYMLDTWGQGTQVTVSS
B11: the Kd in assay [1] turned out to be 29 nM; in assay [2], 3350 nM; in assay [3] it was 469 nM.

B12: B8^V23 (VHH)
VHH: EVQLVESGGGVVQPGGSLRLSCAASGEIFSINFMIWYRQAPGKQREWVAGFTRDGSTNYPDSAKGRFTISRDNAKNTVYLQIDSLKPEDTAVYYCYMLDTWGQGTQVTVSS
With B12, the Kd stood at 29 nM in assay [1], 1550 nM in assay [2] and 939 nM in assay [3].

B13: B8^V5 (VHH)
VHH: EVQLVESGGGVVQPGGSLRLSCAASGEIFSINFMRWYRQAPGKIREWVAGFTRDGSTNYPDSAKGRFTISRDNAKNTVYLQIDSLKPEDTAVYYCYMLDTWGQGTQVTVSS
On to B13, for which the Kd in assay [1] is 2.3 nM; in assay [2] it was 3.8 nM; in assay [3], 2.1 nM.

B14: B8^V11 (VHH)
VHH: EVQLVESGGGVVQPGGSLRLSCAASDEIFSINFMRWYRQAPGKQREWVAGFTRDGSTNYPDSAKGRFTISRDNAKNTVYLQIDSLKPEDTAVYYCYMLDTWGQGTQVTVSS
For B14, the Kd in assay [1] turned out to be 4.6 nM; in assay [2], 22 nM; in assay [3] it was 2 nM.

B15: B8^V17 (VHH)
VHH: EVQLVESGGGVVQPGGSLRLSCAASGEIFSINFMRWYRQAPGKQREFVAGFTRDGSTNYPDSAKGRFTISRDNAKNTVYLQIDSLKPEDTAVYYCYMLDTWGQGTQVTVSS
Take B15: the values for the Kd in assay [1], in assay [2] and in assay [3] were 4.8 nM, 5.2 nM and 2.5 nM, respectively.

B16: B8^V28 (VHH)
VHH: EVQLVESGGGVVQPGGSLRLSCAASGEIFSINFMRWYRQAPGKQREWVAGFTRDGSTFYPDSAKGRFTISRDNAKNTVYLQIDSLKPEDTAVYYCYMLDTWGQGTQVTVSS
With B16, the Kd stood at 31 nM in assay [1], 2500 nM in assay [2] and 755 nM in assay [3].

B17: B8^V8 (VHH)
VHH: EVQLVESGGGVVQPGGSLRLSCAASGEIFSINFMRWYRQAPGKQREWVAGFTRDGSLNYPDSAKGRFTISRDNAKNTVYLQIDSLKPEDTAVYYCYMLDTWGQGTQVTVSS
B17: the figures for the Kd in assay [1], in assay [2] and in assay [3] were 2.5 nM, 8.1 nM and 2.1 nM, respectively.

B18: B8^V19 (VHH)
VHH: EVQLVESGGGVVQPGGSLRLSCAASGEIFSINFMRWYRQAPGKQRHWVAGFTRDGSTNYPDSAKGRFTISRDNAKNTVYLQIDSLKPEDTAVYYCYMLDTWGQGTQVTVSS
Take B18: the Kd in assay [1] came out at 6.2 nM; in assay [2], 7.6 nM; in assay [3], 2.3 nM.

B19: B8^V9 (VHH)
VHH: EVQLVESGGGVVQPGGSLRLSCAASGEIFSINFMRWYRQAPGKQREWVAGFTRDGSKNYPDSAKGRFTISRDNAKNTVYLQIDSLKPEDTAVYYCYMLDTWGQGTQVTVSS
Turning to B19, the Kd in assay [1] stood at 2.8 nM; in assay [2], 31 nM; in assay [3] it was 2.4 nM.

B20: B8^V6 (VHH)
VHH: EVQLVESGGGVVQPGGSLRLSCAASGEIFSINFMRWYRQAPGKQREWVAGFTRDGFTNYPDSAKGRFTISRDNAKNTVYLQIDSLKPEDTAVYYCYMLDTWGQGTQVTVSS
For the molecule B20, the results for the Kd in assay [1], in assay [2] and in assay [3] were 3.8 nM, 16 nM and 2.7 nM, respectively.
